Here are results for one molecule from patent US7608683B2, “Stress proteins and peptides and methods of use thereof” (The Regents of the University of California, priority 2000, dated 2009).

The subject of the assay is PBMC of subjects with JIA. Kind of assay: T cell proliferation assay, PBMC of subjects with JIA. In kind it is cell-based, human. The following applies: majority of JIA subjects; SI of 2 or higher positive.

B1: whole human hsp60: whole human hsp60 protein (protein)
chain: MLRLPTVFRQMRPVSRVLAPHLTRAYAKDVKFGADARALMLQGVDLLADAVAVTMGPKGRTVIIEQGWGSPKVTKDGVTVAKSIDLKDKYKNIGAKLVQDVANNTNEEAGDGTTTATVLARSIAKEGFEKISKGANPVEIRRGVMLAVDAVIAELKKQSKPVTTPEEIAQVATISANGDKEIGNIISDAMKKVGRKGVITVKDGKTLNDELEIIEGMKFDRGYISPYFINTSKGQKCEFQDAYVLLSEKKISSIQSIVPALEIANAHRKPLVIIAEDVDGEALSTLVLNRLKVGLQVVAVKAPGFGDNRKNQLKDMAIATGGAVFGEEGLTLNLEDVQPHDLGKVGEVIVTKDDAMLLKGKGDKAQIEKRIQEIIEQLDVTTSEYEKEKLNERLAKLSDGVAVLKVGGTSDVEVNEKKDRVTDALNATRAAVEEGIVLGGGCALLRCIPALDSLTPANEDQKIGIEIIKRTLKIPAMTIAKNAGVEGSLIVEKIMQSSSEVGYDAMAGDFVNMVEKGIIDPTKVVTALLDAAGVASLLTTAEVVVTEIPKEEKDPGMGAMGGMGGGMGGGMF
modifications: Homo sapiens hsp60
notes: whole human hsp60 protein
In the case of B1, the “T cell proliferative response to whole hsp60” value is “positive T cell proliferative response”.
